Test results as given in article PMC12606367, “CryoEM and computational modeling structural insights into the pH regulator NBCn1” (Nature Communications, 2025).

Molecular target: the molecule itself
Assay: cryo-EM structure; purified NBCn1 (~1.5 mg/ml) in 20 mM Tris-HCl, 115 mM NaCl, 25 mM NaHCO3, pH 7.4, 0.01% LMNG; dimer peak of Superose 6 put on grids; three dimeric states (3.5, 3.4, 3.3 Å), final map 3.3 Å

B1: N-terminally Strep(II)-tagged wt-human NBCn1-A (natural protein, UniProt Q9Y6M7-1 1-1214, looked up)
chain: MERFRLEKKLPGPDEEAVVDLGKTSSTVNTKFEKEELESHRAVYIGVHVPFSKESRRRHRHRGHKHHHRRRKDKESDKEDGRESPSYDTPSQRVQFILGTEDDDEEHIPHDLFTEMDELCYRDGEEYEWKETARWLKFEEDVEDGGDRWSKPYVATLSLHSLFELRSCILNGTVMLDMRASTLDEIADMVLDNMIASGQLDESIRENVREALLKRHHHQNEKRFTSRIPLVRSFADIGKKHSDPHLLERNGEGLSASRHSLRTGLSASNLSLRGESPLSLLLGHLLPSSRAGTPAGSRCTTPVPTPQNSPPSSPSISRLTSRSSQESQRQAPELLVSPASDDIPTVVIHPPEEDLEAALKGEEQKNEENVDLTPGILASPQSAPGNLDNSKSGEIKGNGSGGSRENSTVDFSKVDMNFMRKIPTGAEASNVLVGEVDFLERPIIAFVRLAPAVLLTGLTEVPVPTRFLFLLLGPAGKAPQYHEIGRSIATLMTDEIFHDVAYKAKDRNDLLSGIDEFLDQVTVLPPGEWDPSIRIEPPKSVPSQEKRKIPVFHNGSTPTLGETPKEAAHHAGPELQRTGRLFGGLILDIKRKAPFFLSDFKDALSLQCLASILFLYCACMSPVITFGGLLGEATEGRISAIESLFGASLTGIAYSLFAGQPLTILGSTGPVLVFEKILYKFCRDYQLSYLSLRTSIGLWTSFLCIVLVATDASSLVCYITRFTEEAFAALICIIFIYEALEKLFDLGETYAFNMHNNLDKLTSYSCVCTEPPNPSNETLAQWKKDNITAHNISWRNLTVSECKKLRGVFLGSACGHHGPYIPDVLFWCVILFFTTFFLSSFLKQFKTKRYFPTKVRSTISDFAVFLTIVIMVTIDYLVGVPSPKLHVPEKFEPTHPERGWIISPLGDNPWWTLLIAAIPALLCTILIFMDQQITAVIINRKEHKLKKGAGYHLDLLMVGVMLGVCSVMGLPWFVAATVLSISHVNSLKVESECSAPGEQPKFLGIREQRVTGLMIFILMGLSVFMTSVLKFIPMPVLYGVFLYMGVSSLKGIQLFDRIKLFGMPAKHQPDLIYLRYVPLWKVHIFTVIQLTCLVLLWVIKVSAAAVVFPMMVLALVFVRKLMDLCFTKRELSWLDDLMPESKKKKEDDKKKKEKEEAERMLQDDDDTVHLPFEGGSLLQIPVKALKYSPDKPVSVKISFEDEPRKKYVDAETSL
modifications: N-acetylglucosamine on Asn776, Asn786 and Asn796; disulfide bonds Cys766-Cys814 and Cys768-Cys802
notes: human NBCn1-A (SLC4A7), NP_003606.3, 1214 aa, full length; the atomic model holds residues 581 to 1207; Homodimer in the cryoEM map; only residues 581-1207 (transmembrane domain and C-terminal helix) were built, the cytoplasmic N-terminal part is not in the model; also called SLC4A7; full-length human NBCn1; source: HEK293 cells, transfected (pcDNA3.1(+)), purified (StrepTrap HP, Superose 6 SEC, …)
  stoichiometry N: 2
